Source: PMC5852640

Columns and labels:
[1] = target: BG505 SOSIP.664 HIV-1 envelope glycoprotein trimer (HIV-1 (BG505, clade A)); assay: SEC; purified Drug Substance of the 50 L Confirmation, 200 L Demonstration and 200 L cGMP runs; SEC / SE-HPLC; details in SOM Methods
[2] = target: BG505 SOSIP.664 HIV-1 envelope glycoprotein trimer (HIV-1 (BG505, clade A)); assay: negative-stain electron microscopy; NS-EM imaging of the purified Drug Substance of the three production runs; details in SOM Methods

BG505 SOSIP.664 HIV-1 envelope glycoprotein trimer (complex)
stoichiometry N [1]: 3 | stoichiometry N [2]: 3
